Assay results taken from PMC4008574 (PLoS ONE, 2014).
Each block holds one molecule with its values, some of them ahead of it. Ends that are not written are not given here.

Tests used:
[1] = target: Integrin αvβ3 (Homo sapiens) (UniProt P06756); conditions: cited from earlier work
[2] = target: T1, chemokine domain of fractalkine (FKN-CD), wild type (UniProt P78423 25-100); experiment: ELISA; FKN-CD, γC399tr, FN-H120 or FN8-11 coated on wells (5 µM in Figure 4d; GST removed from FN-H120 and FN8-11); GST-tagged S2 peptides added in PBS, 2 h at room temperature; detected with HRP-conjugated anti-GST antibody; conditions: both partners purified
T1 construct: fractalkine (CX3CL1), N-terminal chemokine domain, printed as residues 1-76; The limits 1-76 are printed for the chemokine domain in general (introduction); also called WT FKN-CD; CX3CL1
T1 sequence (looked up): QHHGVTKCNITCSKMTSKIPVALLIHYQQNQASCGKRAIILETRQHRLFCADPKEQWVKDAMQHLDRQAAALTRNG

Integrin αvβ3 (Homo sapiens), sequence (P06756 31-992, chain 1 of 2): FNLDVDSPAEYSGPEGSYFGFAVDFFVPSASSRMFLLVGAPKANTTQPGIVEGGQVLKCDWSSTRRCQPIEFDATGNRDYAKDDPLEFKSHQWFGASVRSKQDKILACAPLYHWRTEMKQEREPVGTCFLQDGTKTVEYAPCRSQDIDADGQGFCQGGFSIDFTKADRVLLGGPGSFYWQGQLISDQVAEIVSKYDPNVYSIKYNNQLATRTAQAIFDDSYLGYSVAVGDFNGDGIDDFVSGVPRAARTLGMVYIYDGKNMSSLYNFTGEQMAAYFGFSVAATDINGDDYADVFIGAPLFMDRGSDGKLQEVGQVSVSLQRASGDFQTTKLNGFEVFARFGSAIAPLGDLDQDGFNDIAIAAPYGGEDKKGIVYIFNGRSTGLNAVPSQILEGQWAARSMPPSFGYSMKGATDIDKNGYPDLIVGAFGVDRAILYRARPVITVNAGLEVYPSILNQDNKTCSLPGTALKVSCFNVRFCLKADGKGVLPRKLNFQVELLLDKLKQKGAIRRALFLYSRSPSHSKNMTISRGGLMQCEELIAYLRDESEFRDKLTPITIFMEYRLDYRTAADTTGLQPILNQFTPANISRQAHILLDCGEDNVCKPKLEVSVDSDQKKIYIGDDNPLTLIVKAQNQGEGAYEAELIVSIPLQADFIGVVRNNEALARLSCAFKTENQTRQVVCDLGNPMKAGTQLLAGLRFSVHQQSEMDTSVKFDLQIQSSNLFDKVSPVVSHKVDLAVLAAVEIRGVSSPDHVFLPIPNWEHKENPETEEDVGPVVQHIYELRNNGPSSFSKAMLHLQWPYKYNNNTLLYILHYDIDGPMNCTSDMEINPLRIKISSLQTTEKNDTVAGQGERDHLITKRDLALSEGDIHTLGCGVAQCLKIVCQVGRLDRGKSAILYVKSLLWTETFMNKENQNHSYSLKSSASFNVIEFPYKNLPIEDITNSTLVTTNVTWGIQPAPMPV
Integrin αvβ3 (Homo sapiens), sequence (P05106 27-718, chain 2 of 2, further chain): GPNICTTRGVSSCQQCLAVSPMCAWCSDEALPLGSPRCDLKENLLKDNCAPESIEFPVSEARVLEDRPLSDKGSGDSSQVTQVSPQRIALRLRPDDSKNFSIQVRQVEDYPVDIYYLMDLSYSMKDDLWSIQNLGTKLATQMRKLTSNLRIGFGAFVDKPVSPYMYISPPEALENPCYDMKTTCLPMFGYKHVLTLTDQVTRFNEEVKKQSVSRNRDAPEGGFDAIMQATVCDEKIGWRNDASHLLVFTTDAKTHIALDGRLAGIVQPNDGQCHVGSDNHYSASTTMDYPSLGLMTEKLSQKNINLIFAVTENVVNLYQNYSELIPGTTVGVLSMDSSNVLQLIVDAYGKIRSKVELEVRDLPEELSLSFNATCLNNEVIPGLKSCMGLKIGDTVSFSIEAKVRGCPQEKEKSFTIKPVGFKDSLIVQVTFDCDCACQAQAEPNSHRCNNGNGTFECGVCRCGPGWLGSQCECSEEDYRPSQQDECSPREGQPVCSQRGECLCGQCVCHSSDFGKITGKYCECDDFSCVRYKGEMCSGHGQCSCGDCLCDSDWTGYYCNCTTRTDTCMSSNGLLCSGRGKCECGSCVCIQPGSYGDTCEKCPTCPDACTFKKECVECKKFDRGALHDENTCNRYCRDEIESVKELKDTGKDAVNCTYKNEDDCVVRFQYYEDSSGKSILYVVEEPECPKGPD

Molecule: Fractalkine chemokine domain (from UniProt P78423)
- Kd [1]: 0.3 nM

- binding result [2]: binds
B1: GST fusion protein of site 2 peptide of integrin β3 (S2-β3 peptide) (peptide)
chain: QPNDGQSHVGSDNHYSASTTM
modifications: also: GST fusion protein
notes: The 6His tag was put into the BamHI site of pGEX-2T and the peptide's oligonucleotides into the BamHI/EcoRI site of the resulting vector; also called S2 peptide
